From paper PMC10507018, “Structure of human drug transporters OATP1B1 and OATP1B3” (Nature Communications, 2023)

Experiments:
[1] = biological target: T1, Human OATP1B1 (organic anion transporting polypeptide 1B1) (human, UniProt Q9Y6L6, N-glycosylation sites N134, N516); assay: cryo-EM structure; OATP1B1 in lipid nanodiscs (MSP1D1, brain polar lipids with cholesterol), premixed with 1:1.75 molar excess Fab18, SEC in HBS (25 mM HEPES pH 7.4, 150 mM NaCl), with 0.065 mM E1S; conditions: both partners purified
T1 construct: wild-type human OATP1B1, gene codon-optimised for human cells (GenScript), in pcDNA5 with a cleavable C-terminal YFP-1D4 tag; The tag was removed with 3C protease after nanodisc reconstitution and before Fab18 was added for cryo-EM; also called SLCO1B1; not shown: YFP, C-terminal, cleaved; 1D4, C-terminal, cleaved

[2] = biological target: T2, Human OATP1B3 (organic anion transporting polypeptide 1B3) (human, UniProt Q9NPD5, N-glycosylation sites N134, N516); assay: cryo-EM structure; OATP1B3 in lipid nanodiscs (MSP1D1, brain polar lipids with cholesterol), premixed with Fab19 at a molar ratio of 1:1, SEC in HBS (25 mM HEPES pH 7.4, 150 mM NaCl), with 0.05 mM atazanavir; conditions: both partners purified
T2 construct: wild-type human OATP1B3, gene codon-optimised for human cells (GenScript), in pcDNA5 with a cleavable C-terminal YFP-1D4 tag; also called SLCO1B3; not shown: YFP, C-terminal, cleaved; 1D4, C-terminal, cleaved
T2 sequence (Q9NPD5 whole entry): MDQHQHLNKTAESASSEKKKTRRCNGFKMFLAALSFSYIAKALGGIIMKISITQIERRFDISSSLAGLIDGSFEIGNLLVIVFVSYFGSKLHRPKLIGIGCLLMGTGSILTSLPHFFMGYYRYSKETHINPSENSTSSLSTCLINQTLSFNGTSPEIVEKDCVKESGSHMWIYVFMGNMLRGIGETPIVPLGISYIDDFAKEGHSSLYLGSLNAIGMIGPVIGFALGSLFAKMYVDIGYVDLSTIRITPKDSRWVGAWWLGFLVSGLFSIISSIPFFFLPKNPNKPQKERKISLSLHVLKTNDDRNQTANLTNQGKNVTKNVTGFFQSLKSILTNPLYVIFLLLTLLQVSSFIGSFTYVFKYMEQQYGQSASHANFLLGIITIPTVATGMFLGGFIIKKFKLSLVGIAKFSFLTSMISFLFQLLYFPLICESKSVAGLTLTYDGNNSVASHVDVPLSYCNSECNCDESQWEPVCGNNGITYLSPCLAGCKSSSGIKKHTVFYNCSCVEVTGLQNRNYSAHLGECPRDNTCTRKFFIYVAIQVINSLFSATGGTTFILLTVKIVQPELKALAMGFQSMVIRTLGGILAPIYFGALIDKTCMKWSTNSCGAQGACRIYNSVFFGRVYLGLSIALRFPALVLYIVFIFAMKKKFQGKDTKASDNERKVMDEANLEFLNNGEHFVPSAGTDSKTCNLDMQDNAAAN

T1 sequence (Q9Y6L6 whole entry): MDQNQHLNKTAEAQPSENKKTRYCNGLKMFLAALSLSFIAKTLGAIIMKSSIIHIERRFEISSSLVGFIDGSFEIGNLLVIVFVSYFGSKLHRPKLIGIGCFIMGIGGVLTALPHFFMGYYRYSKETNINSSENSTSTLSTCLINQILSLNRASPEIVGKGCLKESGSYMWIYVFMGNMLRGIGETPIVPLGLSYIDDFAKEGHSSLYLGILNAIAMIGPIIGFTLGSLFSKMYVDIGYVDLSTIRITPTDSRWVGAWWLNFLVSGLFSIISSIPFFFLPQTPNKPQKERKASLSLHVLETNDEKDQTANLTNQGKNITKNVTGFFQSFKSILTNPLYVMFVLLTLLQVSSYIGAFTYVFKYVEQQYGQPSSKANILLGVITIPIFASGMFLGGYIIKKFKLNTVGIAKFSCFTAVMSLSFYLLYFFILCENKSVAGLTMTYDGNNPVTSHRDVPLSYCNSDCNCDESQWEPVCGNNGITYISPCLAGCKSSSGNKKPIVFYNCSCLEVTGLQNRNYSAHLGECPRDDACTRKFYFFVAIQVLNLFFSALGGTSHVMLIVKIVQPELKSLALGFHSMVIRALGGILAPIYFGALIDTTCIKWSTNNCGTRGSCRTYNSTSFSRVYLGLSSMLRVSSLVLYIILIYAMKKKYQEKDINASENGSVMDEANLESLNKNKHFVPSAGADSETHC

Row | Binder | binding result [1] | binding result [2]
1 | Fab18 (Fab, V domains shown, heavy chain (HC) of Fab18 in PDB 8PHW; selected by phage display from synthetic Fab library E against OATP1B3; light chain (LC) of Fab18 in PDB 8PHW; also called synthetic Fab fragment Fab18; source: E. coli C43 (Pro+), pRH2.2, purified (Protein L, Resource S)) VH: EVQLVESGGGLVQPGGSLRLSCAASGFNFSSSSIHWVRQAPGKGLEWVASISSSSGSTSYADSVKGRFTISADTSKNTAYLQMNSLRAEDTAVYYCARYGWGGPWYYWLRDSRSGIDYWGQGTLVTVSS VL: DIQMTQSPSSLSASVGDRVTITCRASQSVSSAVAWYQQKPGKAPKLLIYSASSLYSGVPSRFSGSRSGTDFTLTISSLQPEDFATYYCQQSSSSLITFGQGTKVEIK | binds | 
2 | Fab19 (Fab, V domains shown, heavy chain (HC) of Fab19 in PDB 8PG0; selected by phage display from synthetic Fab library E against OATP1B3; light chain (LC) of Fab19 in PDB 8PG0; also called synthetic Fab fragment Fab19; source: E. coli C43 (Pro+), pRH2.2, purified (Protein L, Resource S)) VH: EVQLVESGGGLVQPGGSLRLSCAASGFNFSSSSIHWVRQAPGKGLEWVASISSSSGSTSYADSVKGRFTISADTSKNTAYLQMNSLRAEDTAVYYCARYYIKRWWLMSWEDYSMGLDYWGQGTLVTVSS VL: DIQMTQSPSSLSASVGDRVTITCRASQSVSSAVAWYQQKPGKAPKLLIYSASSLYSGVPSRFSGSRSGTDFTLTISSLQPEDFATYYCQQSSSSLITFGQGTKVEIK |  | binds
